Target: T1, human TLR4 ectodomain (S2-derived) (human, UniProt O00206 23-629)
T1 construct: human toll-like receptor 4 ectodomain, UniProtKB O00206, P23-M629, Drosophila codon-optimized; Cloned into pExpreS2-1-CRPA (Addgene #175445): N-terminal BiP signal peptide for secretion, C-terminal thrombin-cleavable Protein A tag; a few residues of the thrombin site probably remain after cleavage; also called toll-like receptor 4; Drosophila-derived TLR4; source: purified (IgG Sepharose, …)
Test: SEC; analytical SEC, Superdex 200 Increase 30/100 on a Dionex Ultimate 3000 UHPLC; 100-µl injections of 200 µg TLR4, 400 µg MD-2, or 200 µg TLR4 + 400 µg MD-2; A280 traces
Conditions: both partners purified

T1 sequence (O00206 23-629): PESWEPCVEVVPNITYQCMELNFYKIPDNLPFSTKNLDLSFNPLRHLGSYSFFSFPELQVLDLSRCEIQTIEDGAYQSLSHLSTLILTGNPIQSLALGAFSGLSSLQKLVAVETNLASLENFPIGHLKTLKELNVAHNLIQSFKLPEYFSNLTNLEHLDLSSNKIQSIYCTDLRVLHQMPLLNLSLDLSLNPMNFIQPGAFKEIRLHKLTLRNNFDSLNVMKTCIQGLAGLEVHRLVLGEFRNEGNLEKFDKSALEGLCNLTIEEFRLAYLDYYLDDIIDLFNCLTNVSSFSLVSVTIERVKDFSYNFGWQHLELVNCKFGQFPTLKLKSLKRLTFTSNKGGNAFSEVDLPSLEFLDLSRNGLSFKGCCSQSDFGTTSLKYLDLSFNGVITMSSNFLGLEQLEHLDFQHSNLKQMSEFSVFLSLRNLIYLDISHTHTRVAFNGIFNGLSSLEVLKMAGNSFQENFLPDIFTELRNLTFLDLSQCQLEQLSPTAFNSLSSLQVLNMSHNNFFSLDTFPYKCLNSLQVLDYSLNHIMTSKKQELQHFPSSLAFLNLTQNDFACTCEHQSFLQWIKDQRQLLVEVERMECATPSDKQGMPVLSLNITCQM

B1: human MD-2 (S2-derived, Protein A tagged) (natural protein, UniProt Q9Y6Y9 19-160, looked up)
chain: QKQYWVCNSSDASISYTYCDKMQYPISINVNPCIELKRSKGLLHIFYIPRRDLKQLYFNLYITVNTMNLPKRKEVICRGSDDDYSFCRALKGETVNTTISFSFKGIKFSKGKYKCVVEAISGSPEEMLFCLEFVILHQPNSN
notes: human lymphocyte antigen 96 (MD-2), UniProtKB Q9Y6Y9, Q19-N160, Drosophila codon-optimized; Cloned into pExpreS2-1-CRPA (Addgene #175445): N-terminal BiP signal peptide for secretion, thrombin site and Protein A at the C-terminus; the tag was routinely left on for stability; also called lymphocyte antigen 96; source: purified (IgG Sepharose, SEC); not shown: Protein A, C-terminal, kept
- binding result: binds

Reference: paper PMC9117644 (Frontiers in Bioengineering and Biotechnology, 2022)
